Measured values taken from patent publication US7465453B2, “Polypeptide fragments of CKLF1” (Peking University, priority 2004, dated 2008).

What was measured:
[1] = molecular target: T1, CCR6 (Homo sapiens, UniProt P51684); test: Internalization of CCR6-EGFP in transiently transfected HEK293 cells; type: cell-based; conditions: HEK293 cells transfected with pCCR6-EGFP; 37° C., 2 hours
T1 construct: The cDNA fragment covering the open reading frame for CCR6 chemokine receptor was cloned into pEGFP-N1 vector (CLONTECH); expressed in transfected cells; host or cells: HEK293 (transient)
T1 sequence (P51684 1-374): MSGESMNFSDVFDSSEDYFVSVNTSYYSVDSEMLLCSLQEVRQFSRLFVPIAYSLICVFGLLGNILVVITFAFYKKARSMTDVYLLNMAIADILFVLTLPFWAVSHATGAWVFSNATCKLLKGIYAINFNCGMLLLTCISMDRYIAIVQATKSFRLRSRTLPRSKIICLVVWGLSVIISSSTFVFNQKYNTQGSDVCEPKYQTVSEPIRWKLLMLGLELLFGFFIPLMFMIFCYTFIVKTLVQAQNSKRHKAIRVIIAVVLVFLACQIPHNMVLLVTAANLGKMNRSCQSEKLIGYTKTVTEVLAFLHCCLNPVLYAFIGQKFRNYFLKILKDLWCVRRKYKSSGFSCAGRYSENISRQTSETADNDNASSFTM
Procedure: (§1) The cDNA fragment covering the open reading frame for CCR6 chemokine receptor was cloned into pEGFP-N1 vector (CLONTECH). pCCR6-EGFP transiently expressing HEK293 cells were cultured in glass-bottom dishes in RPMI 1640 with 10% FBS. After 16-24 hours of serum starvation, cells were treated with CKLF1 C-terminal peptides or MIP3α at 37° C. for 2 hours. Cells were washed with cold PBS and fixed with 2% paraformaldehyde in PBS. The subcellular localization of CCR6-EGFP protein was visualized using a Leica TCS-NT confocal fluorescence microscope with a 63× oil immersion lens (Wetzler, Heidelberg, Germany). The excitation and emission wavelengths were 488 and 515-540 nm, respectively.

[2] = system: OVA-sensitized murine asthma model; test: OVA-sensitized murine asthma model; type: in vivo, C57BL/6 mice; conditions: for airway hyperreactivity: OVA-sensitized and challenged mice, i.p. pretreatment
Procedure: C57BL/6 mice (20-25 g) of either sex were sensitized by an i.p. injection (100 μl) of 20 μg chicken OVA (Sigma-Aldrich, St. Louis, Mo.) emulsified in Imject alum (2.25 mg Al(OH)3/2 mg Mg(OH)2) (Pierce, Rockfield, Ill.) on days 0 and 14. Mice were injected with 1, 10, or 100 μg of C27 or C19 i.p, and thirty minutes later, these mice were subsequently challenged with an aerosol generated from 1% OVA in saline (OVA), or saline alone, for 20 min by ultrasonic nebulization (DeVilbiss, Somerset, Pa.). This procedure was repeated daily on days 24, 25, and 26. The mice were assessed on day 28.

[3] = molecular target: T2, CCR4 (Homo sapiens, UniProt P51679); test: Internalization of CCR4-EGFP in transiently transfected HEK293 cells; type: cell-based; conditions: HEK293 cells transfected with pCCR4-EGFP; 37° C., 2 hours
T2 construct: The cDNA fragments covering the open reading frames for various chemokine receptors were obtained as follows; expressed in transfected cells; host or cells: HEK293 (transient, electroporation)
T2 sequence (P51679 1-360): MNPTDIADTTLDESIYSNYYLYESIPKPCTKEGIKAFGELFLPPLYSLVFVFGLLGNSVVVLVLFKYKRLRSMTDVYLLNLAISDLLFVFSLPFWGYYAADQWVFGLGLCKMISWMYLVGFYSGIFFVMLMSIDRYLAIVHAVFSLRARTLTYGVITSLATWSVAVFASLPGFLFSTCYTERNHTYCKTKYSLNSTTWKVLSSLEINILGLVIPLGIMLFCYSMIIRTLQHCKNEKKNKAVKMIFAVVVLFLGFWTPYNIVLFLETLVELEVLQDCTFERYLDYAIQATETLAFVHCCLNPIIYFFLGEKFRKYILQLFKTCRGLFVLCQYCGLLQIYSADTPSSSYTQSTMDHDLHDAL
Procedure: as §1, with “CCR4” for “CCR6”, “pCCR4-EGFP” for “pCCR6-EGFP”, “16 to 24” for “16-24”, “hours” for “hours of”, “TARC” for “MIP3α”, “CCR4-EGFP” for “CCR6-EGFP”

[4] = molecular target: T3, CCR5 (Homo sapiens, UniProt P51681); test: Chemotaxis assay (48-well microchemotaxis chamber) of HEK293 cells transfected with CCR5; type: cell-based; conditions: for chemotaxis induced after PTX pretreatment: CCR5-transfected HEK293 cells treated with 100 ng/ml PTX at 37° C. for 30 min; for desensitization of the receptor to subsequent stimulation with RANTES, C27 or C19 (chemotaxis): HEK293/CCR5, pretreatment 1 mM RANTES or 2 μg/ml C27 or C19, 37° C., 30 min
T3 construct: The cDNA fragments covering the open reading frames for various chemokine receptors were obtained as follows; expressed in transfected cells; host or cells: HEK293 (transient, electroporation)
T3 sequence (P51681 whole entry, the tested form may be a part): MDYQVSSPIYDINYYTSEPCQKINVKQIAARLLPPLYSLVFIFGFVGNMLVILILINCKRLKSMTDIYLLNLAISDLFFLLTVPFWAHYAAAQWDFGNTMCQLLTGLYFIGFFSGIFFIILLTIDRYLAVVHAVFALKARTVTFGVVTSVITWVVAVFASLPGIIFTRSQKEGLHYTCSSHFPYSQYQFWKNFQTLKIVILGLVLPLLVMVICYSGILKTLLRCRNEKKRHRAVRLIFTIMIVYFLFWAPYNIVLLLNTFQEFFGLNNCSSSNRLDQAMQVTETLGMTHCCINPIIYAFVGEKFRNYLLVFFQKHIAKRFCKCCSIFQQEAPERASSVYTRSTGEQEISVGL
Procedure: HEK293 cells were grown in RPMI 1640 supplemented with 10% heat-inactivated FBS, penicillin (100 U/ml) and streptomycin (100 μg/ml). Every 4×10^6 HEK293 cells in 400 μl were transiently transfected by electroporation with 15 μg of the expression plasmid at 120 V, 20 ms using an electric pulse generator (Electro Square Porator ECM 830, BTX, San Diego, Calif.), and calcium mobilization assay and chemotaxis assays were performed 48 hours later.
The chemotaxis assay was performed using a 48-well microchemotaxis chamber (Neutroprobe; Cabin John, Md., U.S.A.). Chemoattractants were diluted in HEPES-buffered RPMI 1640 medium supplemented with 0.1% BSA and placed in the lower wells (28 μl/well). HEK293 cells transfected with pcDI-CCR4, -CCR5 were resuspended in the same medium at 2×10^6 cells/ml and added to the upper wells (50 μl/well), which were separated from the lower wells by a polyvinylpyrrolidone-free polycarbonate filter with 8-μm pores. The chamber was incubated for 2 hours at 37° C. in 5% CO2 and 95% air. Filters were removed from the chamber, washed, fixed, and stained with Three Step Stain Set. Cells that migrated were counted in 5 randomly selected high power fields (400×) per well. The chemotactic index (CI) was calculated from the number of cells that migrated to the control. Significant chemotaxis was defined as CI>2. […]

| chemotaxis induced after PTX pretreatment [4] | migration (chemotaxis) of transfected cells ([4]; CCR5-transfected HEK293 cells) | Substance | internalization of CCR6-EGFP [1] | inhibition of eosinophil recruitment into the airways (BAL fluid analysis) ([2]; 1 μg/mouse i.p., vs positive control group) [%] | inhibition of eosinophil recruitment into the airways (BAL fluid analysis) ([2]; 10 μg/mouse i.p., vs positive control group) [%] | inhibition of eosinophil recruitment into the airways (BAL fluid analysis) ([2]; 100 μg/mouse i.p., vs positive control group) [%] | airway hyperreactivity [2] | internalization of CCR4-EGFP [3] | desensitization of the receptor to subsequent stimulation with RANTES, C27 or C19 (chemotaxis) [4] | inhibition of the eosinophil infiltration into the BAL fluid ([2]; doses ranging from 1 to 100 μg/mouse i.p., vs positive control group) |
| --- | --- | --- | --- | --- | --- | --- | --- | --- | --- | --- |
| completely abolished by PTX | – | FNPSGPYQKKPVHEKKEVL (listed as Homo sapiens) [C19] | could induce internalization of CCR6-EGFP | 78 | 69 | 74 | significant decrease | could induce internalization of CCR4-EGFP | could desensitize the receptor | – |
| completely abolished by PTX | could induce migration | ALIYRKL LFNPSGPYQKKPVHEKKEVL (ALIYRKLLFNPSGPYQKKPVHEKKEVL; listed as Homo sapiens) [C27] | could induce internalization of CCR6-EGFP | – | – | – | small, but not statistically significant, increase | could induce internalization of CCR4-EGFP | could desensitize the receptor | did not demonstrate any inhibition |
